This test has as its target T1, carcinoembryonic antigen (CEA) on MKN-45 tumor cells (human, UniProt P06731 35-702).
T1 sequence (looked up): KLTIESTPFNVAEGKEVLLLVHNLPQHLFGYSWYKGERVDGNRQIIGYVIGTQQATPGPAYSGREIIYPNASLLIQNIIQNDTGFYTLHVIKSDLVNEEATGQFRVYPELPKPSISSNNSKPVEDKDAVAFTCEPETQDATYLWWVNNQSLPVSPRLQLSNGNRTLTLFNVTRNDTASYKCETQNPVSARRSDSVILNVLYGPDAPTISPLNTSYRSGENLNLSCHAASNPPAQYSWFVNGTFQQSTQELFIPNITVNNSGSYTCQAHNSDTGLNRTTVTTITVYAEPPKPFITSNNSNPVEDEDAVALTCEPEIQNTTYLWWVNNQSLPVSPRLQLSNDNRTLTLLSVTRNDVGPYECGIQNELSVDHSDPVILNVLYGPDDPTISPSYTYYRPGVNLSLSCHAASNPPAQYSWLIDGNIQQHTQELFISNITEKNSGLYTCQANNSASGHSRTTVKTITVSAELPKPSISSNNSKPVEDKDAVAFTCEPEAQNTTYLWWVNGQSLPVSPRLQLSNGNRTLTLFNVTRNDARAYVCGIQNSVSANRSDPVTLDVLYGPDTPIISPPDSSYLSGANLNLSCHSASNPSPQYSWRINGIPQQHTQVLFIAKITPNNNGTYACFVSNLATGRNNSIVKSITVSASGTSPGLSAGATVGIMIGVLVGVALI
Kind of test: cell-based or functional assay.

B1: CEA TCB (bispecific antibody)
chain 1: QAVVTQEPSLTVSPGGTVTLTCGSSTGAVTTSNYANWVQEKPGQAFRGLIGGTNKRAPGTPARFSGSLLGGKAALTLSGAQPEDEAEYYCALWYSNLWVFGGGTKLTVLSSASTKGPSVFPLAPSSKSTSGGTAALGCLVKDYFPEPVTVSWNSGALTSGVHTFPAVLQSSGLYSLSSVVTVPSSSLGTQTYICNVNHKPSNTKVDKKVEPKSC
chain 2: not shown
chain 3: QVQLVQSGAEVKKPGASVKVSCKASGYTFTEFGMNWVRQAPGQGLEWMGWINTKTGEATYVEEFKGRVTFTTDTSTSTAYMELRSLRSDDTAVYYCARWDFAYYVEAMDYWGQGTTVTVSSASTKGPSVFPLAPSSKSTSGGTAALGCLVKDYFPEPVTVSWNSGALTSGVHTFPAVLQSSGLYSLSSVVTVPSSSLGTQTYICNVNHKPSNTKVDKKVEPKSCDKTHTCPPCPAPEAAGGPSVFLFPPKPKDTLMISRTPEVTCVVVDVSHEDPEVKFNWYVDGVEVHNAKTKPREEQYNSTYRVVSVLTVLHQDWLNGKEYKCKVSNKALGAPIEKTISKAKGQPREPQVCTLPPSRDELTKNQVSLSCAVKGFYPSDIAVEWESNGQPENNYKTTPPVLDSDGSFFLVSKLTVDKSRWQQGNVFSCSVMHEALHNHYTQKSLSLSPGK
chain 4: DIQMTQSPSSLSASVGDRVTITCKASAAVGTYVAWYQQKPGKAPKLLIYSASYRKRGVPSRFSGSGSGTDFTLTISSLQPEDFATYYCHQYYTYPLFTFGQGTKLEIKRTVAAPSVFIFPPSDEQLKSGTASVVCLLNNFYPREAKVQWKVDNALQSGNSQESVTEQDSKDSTYSLSSTLTLSKADYEKHKVYACEVTHQGLSSPVTKSFNRGEC
On to B1, for which the “EC50 of tumor cell killing (LDH release, MKN-45 cells with human PBMCs, E:T 10:1, 24 h)” value was 0.615 nM and the “EC50 of tumor cell killing (LDH release, MKN-45 cells with human PBMCs, E:T 10:1, 48 h)” value was 0.362 nM.

Source of the values: patent US20200376119A1 (Hoffmann-La Roche, published 2020).
